The results in this text go back to US20170210777A1 (FUJIFILM, published 2017).

One may read the koff as the rate constant with which the complex falls apart. Higher therefore signals fast dissociation.

Sequences and labels used below:
B1: polypeptide as set forth in SEQ ID NO: 26 (QQNAFYEI) (peptide)
peptide: QQNAFYEI
notes: Synthetic comparative peptide, immobilised on a CM5 sensor chip; also called immobilized carrier AC
B2: polypeptide as set forth in SEQ ID NO: 2 (KEQQNAFY) (peptide)
peptide: KEQQNAFY
notes: Synthetic peptide, immobilised on a CM5 sensor chip; also called immobilized carrier B
B3: polypeptide as set forth in SEQ ID NO: 15 (EQSAFY) (peptide)
peptide: EQSAFY
notes: Synthetic peptide, immobilised on a CM5 sensor chip; also called immobilized carrier O
B4: polypeptide as set forth in SEQ ID NO: 9 (EQNAFY) (peptide)
peptide: EQNAFY
notes: Synthetic peptide, immobilised on a CM5 sensor chip; also called immobilized carrier I
B5: polypeptide as set forth in SEQ ID NO: 18 (DQSAFY) (peptide)
peptide: DQSAFY
notes: Synthetic peptide, immobilised on a CM5 sensor chip; also called immobilized carrier R
B6: polypeptide as set forth in SEQ ID NO: 6 (KKKEQQNAFYKKK) (peptide)
peptide: KKKEQQNAFYKKK
notes: Synthetic peptide, immobilised on a CM5 sensor chip; also called immobilized carrier F
B7: polypeptide as set forth in SEQ ID NO: 11 (EQQSAFYEILH) (peptide)
peptide: EQQSAFYEILH
notes: Synthetic peptide, immobilised on a CM5 sensor chip; also called immobilized carrier K
B8: polypeptide as set forth in SEQ ID NO: 13 (DQQSAFYEILH) (peptide)
peptide: DQQSAFYEILH
notes: Synthetic peptide, immobilised on a CM5 sensor chip; also called immobilized carrier M
B9: polypeptide as set forth in SEQ ID NO: 3 (EQQNAFYEILH) (peptide)
peptide: EQQNAFYEILH
notes: Synthetic peptide, immobilised on a CM5 sensor chip; also called immobilized carrier C
B10: polypeptide as set forth in SEQ ID NO: 14 (EAQQSAFY) (peptide)
peptide: EAQQSAFY
notes: Synthetic peptide, immobilised on a CM5 sensor chip; also called immobilized carrier N
B11: polypeptide as set forth in SEQ ID NO: 16 (EAQQNAFY) (peptide)
peptide: EAQQNAFY
notes: Synthetic peptide, immobilised on a CM5 sensor chip; also called immobilized carrier P
B12: polypeptide as set forth in SEQ ID NO: 17 (DAQQSAFY) (peptide)
peptide: DAQQSAFY
notes: Synthetic peptide, immobilised on a CM5 sensor chip; also called immobilized carrier Q
B13: polypeptide Ac-KKKEQQNAFYKKK (SEQ ID NO: 22) (peptide)
peptide: Ac-KKKEQQNAFYKKK
notes: Synthetic peptide, immobilised on a CM5 sensor chip; also called immobilized carrier V
B14: polypeptide as set forth in SEQ ID NO: 4 (EQQNAFYEILHL) (peptide)
peptide: EQQNAFYEILHL
notes: Synthetic peptide, immobilised on a CM5 sensor chip; also called immobilized carrier D
B15: polypeptide Ac-EQQNAFYEILHK (SEQ ID NO: 21) (peptide)
peptide: Ac-EQQNAFYEILHK
notes: Synthetic peptide, immobilised on a CM5 sensor chip; also called immobilized carrier U
B16: polypeptide EQQNAFY-NH2 (SEQ ID NO: 19) (peptide)
peptide: EQQNAFY-NH2
notes: Synthetic peptide, immobilised on a CM5 sensor chip; also called immobilized carrier S
B17: polypeptide as set forth in SEQ ID NO: 10 (EQQSAFY) (peptide)
peptide: EQQSAFY
notes: Synthetic peptide, immobilised on a CM5 sensor chip; also called immobilized carrier J
B18: polypeptide as set forth in SEQ ID NO: 12 (DQQSAFY) (peptide)
peptide: DQQSAFY
notes: Synthetic peptide, immobilised on a CM5 sensor chip; also called immobilized carrier L
B19: polypeptide as set forth in SEQ ID NO: 5 (EGQNAFY) (peptide)
peptide: EGQNAFY
notes: Synthetic peptide, immobilised on a CM5 sensor chip; also called immobilized carrier E
B20: polypeptide Ac-EQQNAFYK (SEQ ID NO: 20) (peptide)
peptide: Ac-EQQNAFYK
notes: Synthetic peptide, immobilised on a CM5 sensor chip; also called immobilized carrier T
B21: polypeptide H2N-(peg)8-EQQNAFYE (SEQ ID NO: 24) (peptide)
peptide: peg8-EQQNAFYE
notes: Synthetic peptide, immobilised on a CM5 sensor chip; also called immobilized carrier X
B22: fusion polypeptide Ac-EQQNAFY-(peg)8-K-(peg)8-EQQNAFY (SEQ ID NO: 25) (peptide)
peptide: Ac-EQQNAFY[peg8]K[peg8]EQQNAFY
notes: Synthetic fusion polypeptide, 15 amino acid residues, the two units and the central Lys joined by PEG linkers and not by peptide bonds; immobilised on a CM5 sensor chip; also called immobilized carrier Y
B23: polypeptide Ac-KKKEQQNAFYEILHKKK (SEQ ID NO: 23) (peptide)
peptide: Ac-KKKEQQNAFYEILHKKK
notes: Synthetic peptide, immobilised on a CM5 sensor chip; also called immobilized carrier W
B24: polypeptide as set forth in SEQ ID NO: 8 (EQQNAFYGGGKGGGEQQNAFY) (peptide)
peptide: EQQNAFYGGGKGGGEQQNAFY
notes: Synthetic fusion polypeptide of two EQQNAFY units with a GGGKGGG linker, immobilised on a CM5 sensor chip; also called immobilized carrier H
B25: polypeptide as set forth in SEQ ID NO: 7 (KKKEQQNAFYEILHKKK) (peptide)
peptide: KKKEQQNAFYEILHKKK
notes: Synthetic peptide, immobilised on a CM5 sensor chip; also called immobilized carrier G
B26: polypeptide as set forth in SEQ ID NO: 1 (EQQNAFY) (peptide)
peptide: EQQNAFY
notes: Synthetic peptide, immobilised on a CM5 sensor chip by EDC/NHS coupling; also called polypeptide 1

Square brackets hold non-standard residues; d marks the D form. Ends that are not written are not given here. peg8 = octa(ethylene glycol) chain, 8 ethylene glycol units

For the first test, the target named is T1, human IgG antibody (human).
T1 construct: Injected at 10 to 3000 nM over the immobilised ligands in SPR
Put plainly: SPR (Biacore), ligand immobilised on CM5.
As to B1, the koff stood at 0.00024 s⁻¹.

Molecule B2 displayed a koff of 0.00013 s⁻¹. In turn, B3 came in with an off-rate constant (koff) of 0.00014 s⁻¹. B4 had a koff of 0.00017 s⁻¹. On the same count and under the same terms, to B5 belongs 0.00019 s⁻¹; to B6, 0.00015 s⁻¹. On the same count and under the same terms, under B7 stands 0.00018 s⁻¹; under B8, 0.00015 s⁻¹; under B9, 0.00017 s⁻¹.

B10 showed a koff of 0.00014 s⁻¹.

Consider B11, for which the dissociation rate constant (koff) was 0.00019 s⁻¹. The same measure, in the same setting: to B12 belongs 0.00013 s⁻¹. The same measure, in the same setting: under B13 stands 0.00015 s⁻¹; under B14, 0.00013 s⁻¹. Same read-out and setting: to B15 belongs 0.00016 s⁻¹; to B16, 0.00015 s⁻¹. In turn, B17 had a koff of 0.00015 s⁻¹. Still for that read-out and setting: to B18 belongs 0.00015 s⁻¹; to B19, 0.0002 s⁻¹. On the same count and under the same terms, to B20 belongs 0.00014 s⁻¹; to B21, 0.00013 s⁻¹. The same measure, in the same setting: to B22 belongs 0.00019 s⁻¹. For B23, the off-rate constant (koff) is 0.00016 s⁻¹.

As for B24, the koff was 0.00015 s⁻¹. In the case of B25, the koff was found to be 0.00016 s⁻¹.

The next test deals with T2, Bovine Serum Albumin (BSA, manufactured by Sigma-Aldrich) (bovine, UniProt P02769 25-607).
T2 construct: Injected at 1000 nM over the immobilised ligands in SPR (selectivity test)
T2 sequence (P02769 25-607 limits assumed): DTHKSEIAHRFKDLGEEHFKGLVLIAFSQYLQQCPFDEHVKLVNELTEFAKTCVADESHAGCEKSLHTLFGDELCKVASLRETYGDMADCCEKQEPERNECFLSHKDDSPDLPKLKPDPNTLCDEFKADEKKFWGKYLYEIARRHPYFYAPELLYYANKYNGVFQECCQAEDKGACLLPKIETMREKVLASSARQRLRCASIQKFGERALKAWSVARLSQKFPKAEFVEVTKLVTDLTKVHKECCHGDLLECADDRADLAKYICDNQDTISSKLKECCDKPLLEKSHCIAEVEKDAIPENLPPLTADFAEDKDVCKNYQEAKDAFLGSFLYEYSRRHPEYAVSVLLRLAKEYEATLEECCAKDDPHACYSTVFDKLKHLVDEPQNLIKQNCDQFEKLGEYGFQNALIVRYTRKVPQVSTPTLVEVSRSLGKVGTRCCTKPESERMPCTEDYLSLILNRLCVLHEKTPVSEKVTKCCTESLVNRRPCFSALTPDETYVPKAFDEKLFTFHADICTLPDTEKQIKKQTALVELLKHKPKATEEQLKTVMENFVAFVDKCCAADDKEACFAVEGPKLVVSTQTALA
Put plainly: SPR, ligand immobilised on CM5, BSA injected 10 min at 25 C.
Consider B2, for which the binding result is “no binding (tested: 1000 nM)”.

For B3, the binding result was “no binding (tested: 1000 nM)”.

For the molecule B4, the binding result was “no binding (tested: 1000 nM)”.

Take B5: the binding result is on record as “no binding (tested: 1000 nM)”. The same measure, in the same setting: to B6 belongs “no binding (tested: 1000 nM)”; to B7, “no binding (tested: 1000 nM)”. On the same count and under the same terms, to B8 belongs “no binding (tested: 1000 nM)”; to B9, “no binding (tested: 1000 nM)”. In the case of B10, the binding result is reported as “no binding (tested: 1000 nM)”. Still for that read-out and setting: under B11 stands “no binding (tested: 1000 nM)”; under B12, “no binding (tested: 1000 nM)”.

As to B13, the binding result is listed as “no binding (tested: 1000 nM)”.

As to B14, the binding result was “no binding (tested: 1000 nM)”. As for B15, the binding result is “no binding (tested: 1000 nM)”. On the same count and under the same terms, under B16 stands “no binding (tested: 1000 nM)”; under B26, “no binding (tested: 1000 nM)”; under B17, “no binding (tested: 1000 nM)”. The same measure, in the same setting: under B18 stands “no binding (tested: 1000 nM)”. Same read-out and setting: under B19 stands “no binding (tested: 1000 nM)”; under B20, “no binding (tested: 1000 nM)”; under B21, “no binding (tested: 1000 nM)”. Regarding B22, the binding result was “no binding (tested: 1000 nM)”. Turning to B23, the binding result is on record as “no binding (tested: 1000 nM)”. Regarding B24, the binding result is recorded as “no binding (tested: 1000 nM)”.

As for B25, the binding result was “no binding (tested: 1000 nM)”.

The next test has as its target T1, human IgG antibody. The test is described as follows: SPR (Biacore), ligand immobilised on CM5, fit with BIAevaluation 4.1.
For the molecule B26, the dissociation rate constant (koff) came out at 0.00017 s⁻¹.
